Laboratory results published in patent US20240101707A1, “A METHOD OF PREVENTING, ALLEVIATING OR TREATING A TUMOR” (JIANGSU ALPHAMAB BIOPHARMACEUTICALS CO., LTD., priority 2021, published 2024).

Molecular target: T1, Human PD-L1 (WT) (human, UniProt Q9NZQ7 19-127, limits assumed)
T1 construct: also called human PD-L1 N-terminal IgV domain
Experiment: affinity measurement, method not stated

T1 sequence (Q9NZQ7 19-127 limits assumed): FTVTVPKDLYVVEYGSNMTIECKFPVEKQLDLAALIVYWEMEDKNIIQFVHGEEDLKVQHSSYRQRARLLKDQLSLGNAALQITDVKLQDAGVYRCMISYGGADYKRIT

Kd: 5.92 nM
B1: PD-L1 ISVD-9 (VHH)
VHH: QVQLVESGGGLVQPGGSLRLSCAASGKMSSRRCMAWFRQAPGKERERVAKLLTTSGSTYLADSVKGRFTISRDNSKNTVYLQMNSLRAEDTAVYYCAADSFEDPTCTLVTSSGAFQYWGQGTLVTVSS
notes: also called ISVD specific for PD-L1
